Measurements published in patent US11230704B2, “Oxidation of highly unsaturated fatty acids with novel 8-lipoxygenase derived from Malacostraca” (Bizen Chemical Co., Ltd., priority 2018, dated 2022).

Columns and labels:
[1] = system: peroxisome proliferator-activated receptor (PPAR); conditions: background statement, Non Patent Literature 1; cited from earlier work
[2] = Measurement of activity of PK LOX2: thawed PK LOX2 expressing Sf9 cell pellets incubated with EPA, LC-QTOFMS; type: biochemical, Sf9 cells
Description: A baculovirus stock expressing PK LOX2 obtained by the same method as PK LOX1 in Example 3 was prepared. Sf9 cells were infected therewith. After washing the Sf9 cells after two days from infection with PBS and centrifuging the cells at 1500 g, the cells were frozen at −80° C. after removing the PBS. 50 μL of 200 mM Tris-HCl (pH of 7.4) supplemented with EPA at a concentration of 50 μM was added to PK LOX2 expressing Sf9 cell pellets thawed on ice, and the pellets were incubated for 4 hours at 27° C. After adding 150 μL of acetonitrile (containing 1% formic acid) to the incubated solution and vortexing the solution, the solution was centrifuged for 10 minutes at 4° C. at 20,000 g. The supernatant was collected and 5 μL thereof was subjected to LC-QTOFMS to analyze 8-HEPE.

[3] = Measurement of activity of PK LOX1: EPA added to medium of PK LOX1 expressing Sf9 insect cells, LC-QTOFMS of cell extract; type: cell-based
Description: (§1) A P1 baculovirus stock prepared by cryopreserving a culture supernatant of Sf9 insect cells transduced with bacmid expressing PK LOX1 was added to a medium of Sf9 insect cells and cultured for 1 week. 50 μM of arachidonic acid, eicosapentaenoic acid, or docosahexaenoic acid was added to the medium of baculovirus infected cells, and the cells were centrifuged and collected after 4 hours of culture. After removing the medium from the Sf9 cells and adding acetonitrile to the cells and sonicating the cells, the solution was centrifuged for 10 minutes at 20,000 g, and the supernatant was used as an extract. 5 μL of the extract was subjected to high performance liquid chromatography/mass spectrometry system (LC-QTOFMS: Agilent) to analyze 8-HETE, 8-HEPE, and 10-HDoHE. […] The 8-HETE content after adding an arachidonic acid, 8-HEPE content after adding an eicosapentaenoic acid, and 10-HDoHE content after adding a docosahexaenoic acid are higher in a PK LOX1 expressing Sf9 insect cell extract compared to an extract of EGFP expressing Sf9 insect cells used as a control. It was confirmed that 8-HETE, 8-HEPE, and 10-HDoHE production is induced by PK LOX1 expression (FIG. 6C).

[4] = Measurement of activity of PK LOX1: arachidonic acid added to medium of PK LOX1 expressing Sf9 insect cells, LC-QTOFMS of cell extract; type: cell-based; conditions: 50 μM, 4 hours; FIG. 6C
Description: as §1

[5] = Measurement of activity of PK LOX1: docosahexaenoic acid added to medium of PK LOX1 expressing Sf9 insect cells, LC-QTOFMS of cell extract; type: cell-based; conditions: 50 μM, 4 hours; FIG. 6C
Description: as §1

CCC=CCC=CCC=CC=CC(O)CC=CCCCC(=O)O (centres unmarked) [8-HEPE, 8-hydroxyeicosapentaenoic acid]
PPAR activating action compared with EPA [1]: higher peroxisome proliferator-activated receptor (PPAR) activating action than EPA

B1: PK LOX2: lipoxygenase isolated from Euphausia pacifica, 686 amino acids, SEQ ID NO: 4, expressed His-tagged in Sf9 insect cells (protein, listed as Euphausia pacifica)
chain: MVALRCFKPEEMHIFTICGLFLAAMEVSNAYLCNNNFLVTVKTGYGTDAGSNASVILVLEDQNRNEIRNWLSIPKQDETGNHRIPIPTSFGRIVTVELALDYKLAPDWYCEDIFIEDPRLNDRLYFPIDRRIQGNQFYDFQNYATCLPQFDQNSISRRLTLQKKREDYQLSYDRTAAMVKDLPQDEIFHQDYISSIRAIQKTSIDDQIPLLQAWQSSNNISAFFGGDFYMPQSIQFWKEDAWFGAQRVQGIVPNIIELCKQIPDKLGVTEDTISGLLEGSTLQQALKNNKIFISDLELLDGIQYSGVWSDNADHAAPISVFYLNKIDQLMPIAIQLRQQKGPKNPVYTPKDPPNTWLVAKIYYNNAESQFHQILVHFGYTHMIMDGIATSMNRQLSPSHPVFKILKPHFLYLLAINRLGEQELFVPQGVFPYFSIGLDGMNQLLAKAVPQFTLARAIGSVESDARARGVWDKQVLPYYPFRDDAHSMYNIIKKYATKVIYYYYNTPGKIINDMELQRWRTELAKPRAQGGVGIPDLPGSDTAGFRDINEIIDLVTTIITHSSVGHAAVNFPMYDTYGYFPNYPPDLNEGPPLQKMLYTEDEIMSLFPNGSHAFRVRATIRVLSWQGTNDCGDFEKIYLYDPVSQEAQVELRKDLAMFSKEVMNRNSKRFIPYKYLDPNYVPNAISI
modifications: His tag
8-HEPE production ([2]; EPA 50 μM, 4 hours at 27° C., FIG. 7): 8-HEPE production was observed
activity compared with specific activity of lipoxygenases known in the art ([2]; PK LOX2 expressing Sf9 cells): markedly stronger than the specific activity of lipoxygenases known in the art
specific activity of lipoxygenase (8-HEPE/PK LOX2 expressing Sf9 cell protein) ([2]; printed as 'up to about', EPA 50 μM, 200 mM Tris-HCl pH 7.4, 4 hours at 27° C., FIG. 7): about 3.2 ng/mg

B2: PK LOX1: lipoxygenase isolated from Euphausia pacifica, 691 amino acids, SEQ ID NO: 2, expressed His-tagged in Sf9 insect cells (protein, listed as Euphausia pacifica)
chain: MAPIKEKKSFKLTAATGNQDGAGTDANVYVTFEDEEGRRTKEKKLDKLLYNDLEKGKKDKYDINAPVEFGAVKKLHVHRDSTGLGDSWFCDYFEIKDLRFKGNNNEPSPTKKEYYYFPIHRWISSQHRYEFDEYGTCLPQADPCIGPRKADLEAKKSSYNYVYRIGAMAATDTTDACVGHCAQVETLPADEKFSEDYYWNFATDKLKLLAETKWMEWTNQTKWNSLSDLRSVYKKSLGEPKCLDVWREDWWFGLQRLQGVNPVIIELCTQIPDNLAVTDTTVEGLMDDLTLNEALENKKIFICDLKIMDGLCCKENRELAAPLALFYLNKENKLLPIALQLKQEKGDDNPVFTPKDSKNTWLVAKMFYNNSEAQHHQALTHLGYTHLLMEGVVVCTHRNLSPSHPLFKLMAPHFLFLLAINSRGLEKLVSEGGWVDCCMTQGLCGILDLMKRGFEAWTYTKFGSVSAELEARGVLNKDVLPYYPYRDDALPLFAEIRKYVKTIVEHHYDNEDKMKEDWELKSWREELAKQRSENGVGLADIPGSKEDGFNSVDEVVDVVTMIISTCSLGHAASNFQQYEQYGYVPNYPGILMSTLPKEKKEYTEEEIMQILPDKRMTLDIMVITKLLSTKGTQSLGDFEMQYLYDPVGVQAAKDFRKNLDRLSKKNKLENVDRQWDFDWLDPEFVPNAISV
modifications: His tag
8-HEPE content after adding an eicosapentaenoic acid, compared to extract of EGFP expressing Sf9 insect cells (control) ([3]; 50 μM, 4 hours, FIG. 6C): higher
production of 8-HEPE in cell extract ([3]; EPA 50 μM added, 4 hours of culture, FIG. 6A): Production of 8-HEPE was observed
activity compared with specific activity of lipoxygenases known in the art ([3]; PK LOX1 expressing Sf9 cells): markedly stronger than the specific activity of lipoxygenases known in the art
position specificity of oxidation of EPA ([3]; only one peak of m/z=317.22, retention time and MS/MS match 8-HEPE standard, FIG. 6A, 6B): catalyzed position 8 specific oxidation of EPA
specific activity of lipoxygenase (8-HEPE/PK LOX1 expressing Sf9 cell protein) ([3]; printed as 'up to about', 50 μM substrate, 4 hours of culture, FIG. 6C): about 2.5 μg/mg
8-HETE content after adding an arachidonic acid, compared to extract of EGFP expressing Sf9 insect cells (control) [4]: higher
10-HDoHE content after adding a docosahexaenoic acid, compared to extract of EGFP expressing Sf9 insect cells (control) [5]: higher
